Data as given in publication PMC6294489, “Structural basis for receptor-regulated SMAD recognition by MAN1” (Nucleic Acids Research, 2018).

Columns and labels:
SMAD2C-2E (human) = experiment: ITC; Trx-MAN1(762–890)-SDED (255 μM) injected into SMAD1C-2E (20 μM) or SMAD2C-2E (25 μM); 20°C; 100 mM Na2HPO4 pH 8.0, 150 mM NaCl, 1 mM TCEP; one set of sites model
SMAD1C-2E [1] = target: T1, SMAD1C-2E (human, UniProt Q15797-1 259-465, S463E | S465E); experiment: as above; details: both partners purified
T1 construct: SMAD1, human, MH2 domain, residues 259–465 with S463E and S465E; Crystals: from pGEX-6P-SMAD1C-2E (GST cleaved); treated as the same molecule; also called phosphorylated-state mimic of the MH2 domain of SMAD1; source: E. coli BL21(DE3) with pG-KJE8; for ITC and thermal shift purified (Ni-NTA, HRV3C protease, MonoQ); not shown: GST, N-terminal, cleaved

[2] = target: T2, His-GST-SMAD1C-2E H364Y-F366W (human, UniProt Q15797-1 259-465, H364Y | F366W | S463E | S465E); experiment: pull-down; His-GST-SMAD1C-2E, its mutant or His-GST-SMAD2C-2E (2.5 μM) on Ni-NTA resin, Trx-MAN1(762–890)-SDED (5 μM; 5, 10 and 20 μM in the comparison of SMAD1 with SMAD2); 50 mM Tris–HCl pH 9.0, 200 mM NaCl, 10 mM imidazole, 10% glycerol, 1 mM TCEP; details: both partners purified
T2 construct: SMAD1, human, MH2 domain, residues 259–465 with S463E, S465E, H364Y and F366W; also called H364Y-F366W double mutant of SMAD1; source: E. coli BL21(DE3) with pG-KJE8, purified (Ni-NTA, MonoQ); not shown: His tag, N-terminal, kept; GST, N-terminal, kept

SMAD1C-2E [3] = target: T1, SMAD1C-2E; experiment: thermal shift assay; SMAD1C-2E or SMAD2C-2E (10 μM) with Trx-MAN1(762–911)-SDED (10 μM), SYPRO Orange; 10 mM Tris–HCl pH 9.0, 200 mM NaCl, 1 mM TCEP; 20 to 95°C; details: both partners purified

T1 sequence (Q15797 259-465 S463E/S465E): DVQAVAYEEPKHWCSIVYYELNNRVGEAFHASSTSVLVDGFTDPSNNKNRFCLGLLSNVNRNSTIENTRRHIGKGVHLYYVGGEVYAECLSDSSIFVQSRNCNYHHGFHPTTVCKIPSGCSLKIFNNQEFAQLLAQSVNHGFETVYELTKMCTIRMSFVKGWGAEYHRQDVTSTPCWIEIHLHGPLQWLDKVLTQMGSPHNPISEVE
T2 sequence (Q15797 259-465 H364Y/F366W/S463E/S465E): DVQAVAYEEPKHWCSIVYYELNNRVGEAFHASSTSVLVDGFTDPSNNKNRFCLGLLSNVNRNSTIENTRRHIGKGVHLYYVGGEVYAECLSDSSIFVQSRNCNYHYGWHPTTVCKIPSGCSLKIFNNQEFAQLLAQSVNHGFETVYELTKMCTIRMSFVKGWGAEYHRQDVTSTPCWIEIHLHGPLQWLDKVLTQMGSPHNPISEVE

Kd (SMAD2C-2E (human)) [nM] | Kd (SMAD1C-2E [1]) [nM] | binding result [2] | Binder | Tm of SMAD1C-2E with the binder (48.5°C without) (SMAD1C-2E [3]) [°C]
3300 | 350 | binds | Trx-MAN1(762–890)-SDED (domain or fragment, human, UniProt Q9Y2U8 762-890, looked up, MAN1, human, residues 762–890 (ULM and UHM domain); Layout: His-tag, HRV3C site, Trx, Gly-Ser, MAN1, Ser-Asp-Glu-Asp; His tag cut off with HRV3C; source: E. coli Rosetta (DE3), purified (Ni-NTA, HRV3C protease, MonoQ); not shown: His tag, N-terminal, cleaved; Trx, N-terminal, kept; SDED (Ser-Asp-Glu-Asp), C-terminal, kept) SKVWQGQAFHLDRRNSPPNSLTPCLKIRNMFDPVMEIGDQWHLAIQEAILEKCSDNDGIVHIAVDKNSREGCVYVKCLSPEYAGKAFKALHGSWFDGKLVTVKYLRLDRYHHRFPQALTSNTPLKPSNK | –
– | – | – | Trx-MAN1(762–911)-SDED (domain or fragment, human, UniProt Q9Y2U8 762-911, looked up, MAN1, human, residues 762–911 (ULM, UHM domain and C-terminal disordered region); source: E. coli Rosetta (DE3), purified (Ni-NTA, HRV3C protease, MonoQ); not shown: His tag, N-terminal, cleaved; Trx, N-terminal, kept; SDED (Ser-Asp-Glu-Asp), C-terminal, kept) SKVWQGQAFHLDRRNSPPNSLTPCLKIRNMFDPVMEIGDQWHLAIQEAILEKCSDNDGIVHIAVDKNSREGCVYVKCLSPEYAGKAFKALHGSWFDGKLVTVKYLRLDRYHHRFPQALTSNTPLKPSNKHMNSMSHLRLRTGLTNSQGSS | 50.5
